Measurements published in paper PMC7563377.
pKd: −log10 of the molar value.

Target: PSMA (prostate-specific membrane antigen) (UniProt Q04609)
Experiment: SPR
Conditions: 2'-fluoro modified ('2F-modified', positions not stated); 3' spacer-NH2 coupled to DSPE-PEG-NHS nanoparticle; OpenSPR, carboxyl chip with amine coupling, running buffer PBS pH 7.4, 20 uL/min; temperature not stated

Chain of UniProt Q04609 (Q04609 44-750): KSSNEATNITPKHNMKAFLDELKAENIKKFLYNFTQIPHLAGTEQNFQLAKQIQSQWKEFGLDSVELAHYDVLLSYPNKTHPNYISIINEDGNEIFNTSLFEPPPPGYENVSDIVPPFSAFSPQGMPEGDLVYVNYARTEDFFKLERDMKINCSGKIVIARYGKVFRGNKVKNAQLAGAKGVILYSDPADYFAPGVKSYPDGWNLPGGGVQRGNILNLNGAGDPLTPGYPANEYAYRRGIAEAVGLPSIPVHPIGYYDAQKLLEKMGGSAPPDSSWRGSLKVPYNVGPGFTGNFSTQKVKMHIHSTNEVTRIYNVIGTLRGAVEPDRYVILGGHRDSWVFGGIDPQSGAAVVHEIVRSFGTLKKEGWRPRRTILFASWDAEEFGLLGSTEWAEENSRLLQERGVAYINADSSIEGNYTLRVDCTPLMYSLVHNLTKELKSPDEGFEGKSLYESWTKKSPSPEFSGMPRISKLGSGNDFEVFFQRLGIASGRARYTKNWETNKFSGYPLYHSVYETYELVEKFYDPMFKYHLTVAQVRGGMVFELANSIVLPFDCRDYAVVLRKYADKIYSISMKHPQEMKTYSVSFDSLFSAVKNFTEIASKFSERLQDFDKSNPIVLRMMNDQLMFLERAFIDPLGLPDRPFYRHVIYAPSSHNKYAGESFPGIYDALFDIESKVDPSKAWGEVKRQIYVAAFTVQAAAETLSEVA

## GGGAGGACGAUGCGGAUCAGCCAUGUUUACGUCACUCCU
  pKd: 6.22
